Test results as given in patent US20230414796A1, “COMBINATION OF PARA-AMINOHIPPURIC ACID (PAH) AND RADIOLABELED COMPLEXES FOR TREATING CANCER” (priority 2020, published 2023).

Columns and labels:
[1] = Example 1: body weight of AR42J xenograft CD1 nude mice; settings: mouse, in vivo
Protocol: (§1) Body weight and tumor volume were evaluated every two to three days for a period of 57 days after treatment (or until the tumor size limit was reached). The tumor volume was determined by measuring the length, the width and the depth of the tumor with a digital caliper. Tumor volume was calculated by using the following formula: […]
(§2) The mice were monitored until the individual tumor size reached 1500 mm^3. When this experimental endpoint was reached or after a 57 days period following treatment, mice were euthanized. Mean tumor volume and body weight of AR42J xenograft CD1 nude mice were calculated for each treatment group throughout the duration of the study.

[2] = Example 2: body weight of AR42J xenograft SWISS mice; design: species or system SWISS nude mice; settings: mouse, in vivo
Protocol: 10 min prior to dosing of ^177Lu-DOTATOC, mice of groups 1 and 2 were injected intraperitoneally with 50 μL saline or PAH, respectively.
as §1, with “46” for “57”
as §2, with “46” for “57”, “SWISS” for “CD1 nude”

## C[C@@H](O)[C@@H]1NC(=O)[C@H](CCCCN)NC(=O)[C@@H](Cc2c[nH]c3ccccc23)NC(=O)[C@H](Cc2ccc(O)cc2)NC(=O)[C@@H](NC(=O)[C@@H](Cc2ccccc2)NC(=O)CN2CCN(CC(=O)O)CCN(CC(=O)O)CCN(CC(=O)O)CC2)CSSC[C@@H](C(=O)N[C@H](CO)[C@@H](C)O)NC1=O [^177Lu-DOTATOC, ^177Lu-DOTA-D-Phe-cyclo(Cys-Tyr-D-Trp-Lys-Thr-Cys]-Thr(ol), metal not drawn]
[1]
  average weight change compared to untreated tumor-bearing control mice: increased similarly
  physical appearance throughout the study period: maintained a healthy physical appearance
[2]
  average weight increase compared to tumor-bearing control mice: increased slightly more slowly
  physical appearance throughout the study period: maintained a healthy physical appearance
  radiotoxicity (suggested by body weight): low radiotoxicity
